Legend:
[1] = tested on: GST-Bim polypeptide [GST: P08515]
Target sequence in this assay (P08515 whole entry, looked up, the tested form may be a part): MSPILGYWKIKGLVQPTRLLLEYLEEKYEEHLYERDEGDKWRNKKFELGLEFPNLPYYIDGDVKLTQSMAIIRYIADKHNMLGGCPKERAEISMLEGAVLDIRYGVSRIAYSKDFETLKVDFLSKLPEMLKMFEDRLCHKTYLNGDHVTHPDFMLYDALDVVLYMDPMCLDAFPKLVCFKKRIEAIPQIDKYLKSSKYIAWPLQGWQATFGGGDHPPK

[2] = tested on: phosphorylated GST-Bim fusion protein [GST: P08515]
[3] = biological target: GST-Bim polypeptide [GST: P08515]; remark: listed apart in the source
Target sequence in this assay (P08515 whole entry, looked up, the tested form may be a part): as above

phosphorylated GST-Bim fusion protein [GST: P08515], sequence (P08515 whole entry, looked up, the tested form may be a part): as above

Molecule: Myc-tagged TRIM2 (myc-TRIM2)
- Bim ubiquitination [1]: Incubation of TRIM2 polypeptide with Bim resulted in low levels of Bim ubiquitination
- Bim ubiquitination [2]: addition of active MAPK to the reaction enhanced Bim ubiquitination

B1: TRIM2 protein from rat brain lysate / rat cortical neuronal cell lysates (protein)
chain: MQRAGSRTAGPTCQWSRMASEGASIPSPVVRQIDKQFLICSICLERYKNPKVLPCLHTFCERCLQNYIPAHSLTLSCPVCRQTSILPEKGVAALQNNFFITNLMDVLQRTPGSNGEDPSILQTVTAVAAGKPLSCPNHDGNVMEFYCQSCETAMCRECTEGEHAEHPTVPLKDVVEQHKASLQVQLDAVNKRLPEIDSALQFISEIIHQLTNQKASIVDDIHSTFDELQKTLNVRKSVLLMELEVNYGLKHKVLQSQLDTLLQGQESIKSCSNFTAQALNHGTETEVLLVKKQMSEKLNELADQDFPLHPRENDQLDFIVETEGLKKSIHNLGTILTTNAVASETVATGEGLRQTIIGQPMSVTITTKDKDGELCKTGNAYLTAELSTPDGSVADGEILDNKNGTYEFLYTVQKEGDFTLSLRLYDQHIRGSPFKLKVIRSADVSPTTEGVKRRVKSPGSGHVKQKAVKRPASMYSTGKRKENPIEDDLIFRVGTKGRNKGEFTNLQGVAASTSGKILIADSNNQCVQIFSNDGQFKSRFGIRGRSPGQLQRPTGVAVHPSGDIIIADYDNKWVSIFSNDGKFKTKIGSGKLMGPKGVSVDRNGHIIVVDNKACCVFIFQPNGKIVTRFGSRGNGDRQFAGPHFAAVNSSNEIIITDFHNHSVKVFNQEGEFMLKFGSNGEGNGQFNAPTGVAVDSNGNIIVADWGNSRIQVFDGSGSFLSYINTSADPLYGPQGLALTSDGHVVVADSGNHCFKVYRYLQ
- Bim ubiquitination (anti-ubiquitin immunoblot of immunoprecipitated GST-Bim) [3]: immunodepletion of TRIM2 protein reduces Bim ubiquitination in lysates from preconditioned cells to that of control lysates
